From paper doi:10.1101/2022.09.09.507385 (bioRxiv, 2022) come the findings set out here.

Changes are numbered by the printed parent chain. Names may count otherwise.

The data set deals with the molecule itself. The experiment in a line: cryo-EM structure.

B1: human Pannexin3 (PANX3), full length (natural protein)
chain: MSLAHTAAEYMLSDALLPDRRGPRLKGLRLELPLDRIVKFVAVGSPLLLMSLAFAQEFSSGSPISCFSPSNFSIRQAAYVDSSCWDSLLHHKQDGPGQDKMKSLWPHKALPYSLLALALLMYLPVLLWQYAAVPALSSDLLFIISELDKSYNRSIRLVQHMLKIRQKSSDPYVFWNELEKARKERYFEFPLLERYLACKQRSHSLVATYLLRNSLLLIFTSATYLYLGHFHLDVFFQEEFSCSIKTGLLSDETHVPNLITCRLTSLSIFQIVSLSSVAIYTILVPVIIYNLTRLCRWDKRLLSVYEMLPAFDLLSRKMLGCPINDLNVILLFLRANISELISFSWLSVLCVLKDTTTQKHNIDTVVDFMTLLAGLEPSKPKHLTNSACDEHP
modifications: N-acetylglucosamine (NAG) at N71; disulfide bonds C66-C261 and C84-C242
Consider B1, for which the “stoichiometry N” value worked out at 7.

B2: human Pannexin1 wild type (PANX1WT), full length (natural protein)
chain: MAIAQLATEYVFSDFLLKEPTEPKFKGLRLELAVDKMVTCIAVGLPLLLISLAFAQEISIGTQISCFSPSSFSWRQAAFVDSYCWAAVQQKNSLQSESGNLPLWLHKFFPYILLLFAILLYLPPLFWRFAAAPHICSDLKFIMEELDKVYNRAIKAAKSARDLDMRDGACSVPGVTENLGQSLWEVSESHFKYPIVEQYLKTKKNSNNLIIKYISCRLLTLIIILLACIYLGYYFSLSSLSDEFVCSIKSGILRNDSTVPDQFQCKLIAVGIFQLLSVINLVVYVLLAPVVVYTLFVPFRQKTDVLKVYEILPTFDVLHFKSEGYNDLSLYNLFLEENISEVKSYKCLKVLENIKSSGQGIDPMLLLTNLGMIKMDVVDGKTPMSAEMREEQGNQTAELQGMNIDSETKANNGEKNARQRLLDSSC
With B2, the binding result is given as “binds”.

B3: human Pannexin1 congenital mutant R217H (PANX1_(R217H)) (natural protein)
chain: B2 chain with R217H
For the protein B3, the binding result is “binds”.

B4: human Pannexin1 double mutant W74R/R75D (PANX1DM) (natural protein)
chain: B2 chain with W74R, R75D
Consider B4, for which the binding result is “binds”.
